According to PMC12416549 (2024):

T1: TNFR1 (Homo sapiens, UniProt P19438)
T1 chain: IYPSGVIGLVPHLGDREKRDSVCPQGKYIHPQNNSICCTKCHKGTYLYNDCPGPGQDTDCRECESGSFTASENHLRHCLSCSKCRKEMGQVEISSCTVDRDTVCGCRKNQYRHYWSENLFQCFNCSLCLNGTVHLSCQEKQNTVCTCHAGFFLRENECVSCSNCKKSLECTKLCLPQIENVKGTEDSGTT


Molecular target: T1, TNFR1
Assay: yeast display SC50

Row | Binder | apparent Kd (screen) [pM]
1 | A10M (designed binder) SMEEEVEKAMKEYEKKKKEAIEKHLEKLKAKDKEAAERFLKELEEAAKEYAKDEAKTMSEEEAKRRAKKYKEKVLLSELSEEEQKEIKEAEEKLVRTILKYVEEAAK | 2730
2 | A30R (designed binder) SMEEEVEKAAKEYEKKKKEAIEKHLEKLKRKDKEAAERFLKELEEAAKEYAKDEAKTMSEEEAKRRAKKYKEKVLLSELSEEEQKEIKEAEEKLVRTILKYVEEAAK | 790
3 | A10R (designed binder) SMEEEVEKARKEYEKKKKEAIEKHLEKLKAKDKEAAERFLKELEEAAKEYAKDEAKTMSEEEAKRRAKKYKEKVLLSELSEEEQKEIKEAEEKLVRTILKYVEEAAK | 446
4 | L25P (designed binder) SMEEEVEKAAKEYEKKKKEAIEKHPEKLKAKDKEAAERFLKELEEAAKEYAKDEAKTMSEEEAKRRAKKYKEKVLLSELSEEEQKEIKEAEEKLVRTILKYVEEAAK | 8560
5 | K29G (designed binder) SMEEEVEKAAKEYEKKKKEAIEKHLEKLGAKDKEAAERFLKELEEAAKEYAKDEAKTMSEEEAKRRAKKYKEKVLLSELSEEEQKEIKEAEEKLVRTILKYVEEAAK | 446
6 | V74D (designed binder) SMEEEVEKAAKEYEKKKKEAIEKHLEKLKAKDKEAAERFLKELEEAAKEYAKDEAKTMSEEEAKRRAKKYKEKDLLSELSEEEQKEIKEAEEKLVRTILKYVEEAAK | 405
7 | K8L (designed binder) SMEEEVELAAKEYEKKKKEAIEKHLEKLKAKDKEAAERFLKELEEAAKEYAKDEAKTMSEEEAKRRAKKYKEKVLLSELSEEEQKEIKEAEEKLVRTILKYVEEAAK | 718
8 | K73L (designed binder) SMEEEVEKAAKEYEKKKKEAIEKHLEKLKAKDKEAAERFLKELEEAAKEYAKDEAKTMSEEEAKRRAKKYKELVLLSELSEEEQKEIKEAEEKLVRTILKYVEEAAK | 7070
9 | E14Q (designed binder) SMEEEVEKAAKEYQKKKKEAIEKHLEKLKAKDKEAAERFLKELEEAAKEYAKDEAKTMSEEEAKRRAKKYKEKVLLSELSEEEQKEIKEAEEKLVRTILKYVEEAAK | 4830
10 | T57V (designed binder) SMEEEVEKAAKEYEKKKKEAIEKHLEKLKAKDKEAAERFLKELEEAAKEYAKDEAKVMSEEEAKRRAKKYKEKVLLSELSEEEQKEIKEAEEKLVRTILKYVEEAAK | 490
11 | A9R (designed binder) SMEEEVEKRAKEYEKKKKEAIEKHLEKLKAKDKEAAERFLKELEEAAKEYAKDEAKTMSEEEAKRRAKKYKEKVLLSELSEEEQKEIKEAEEKLVRTILKYVEEAAK | 335
12 | T57M (designed binder) SMEEEVEKAAKEYEKKKKEAIEKHLEKLKAKDKEAAERFLKELEEAAKEYAKDEAKMMSEEEAKRRAKKYKEKVLLSELSEEEQKEIKEAEEKLVRTILKYVEEAAK | 446
13 | E3Y (designed binder) SMYEEVEKAAKEYEKKKKEAIEKHLEKLKAKDKEAAERFLKELEEAAKEYAKDEAKTMSEEEAKRRAKKYKEKVLLSELSEEEQKEIKEAEEKLVRTILKYVEEAAK | 5840
14 | E14H (designed binder) SMEEEVEKAAKEYHKKKKEAIEKHLEKLKAKDKEAAERFLKELEEAAKEYAKDEAKTMSEEEAKRRAKKYKEKVLLSELSEEEQKEIKEAEEKLVRTILKYVEEAAK | 2730
15 | H24S (designed binder) SMEEEVEKAAKEYEKKKKEAIEKSLEKLKAKDKEAAERFLKELEEAAKEYAKDEAKTMSEEEAKRRAKKYKEKVLLSELSEEEQKEIKEAEEKLVRTILKYVEEAAK | 869
16 | A35P (designed binder) SMEEEVEKAAKEYEKKKKEAIEKHLEKLKAKDKEPAERFLKELEEAAKEYAKDEAKTMSEEEAKRRAKKYKEKVLLSELSEEEQKEIKEAEEKLVRTILKYVEEAAK | 1400
17 | S1F (designed binder) FMEEEVEKAAKEYEKKKKEAIEKHLEKLKAKDKEAAERFLKELEEAAKEYAKDEAKTMSEEEAKRRAKKYKEKVLLSELSEEEQKEIKEAEEKLVRTILKYVEEAAK | 4390
18 | E44K (designed binder) SMEEEVEKAAKEYEKKKKEAIEKHLEKLKAKDKEAAERFLKELKEAAKEYAKDEAKTMSEEEAKRRAKKYKEKVLLSELSEEEQKEIKEAEEKLVRTILKYVEEAAK | 956
19 | A36D (designed binder) SMEEEVEKAAKEYEKKKKEAIEKHLEKLKAKDKEADERFLKELEEAAKEYAKDEAKTMSEEEAKRRAKKYKEKVLLSELSEEEQKEIKEAEEKLVRTILKYVEEAAK | 446
20 | D53I (designed binder) SMEEEVEKAAKEYEKKKKEAIEKHLEKLKAKDKEAAERFLKELEEAAKEYAKIEAKTMSEEEAKRRAKKYKEKVLLSELSEEEQKEIKEAEEKLVRTILKYVEEAAK | 12500
21 | Y13A (designed binder) SMEEEVEKAAKEAEKKKKEAIEKHLEKLKAKDKEAAERFLKELEEAAKEYAKDEAKTMSEEEAKRRAKKYKEKVLLSELSEEEQKEIKEAEEKLVRTILKYVEEAAK | 490
22 | K69N (designed binder) SMEEEVEKAAKEYEKKKKEAIEKHLEKLKAKDKEAAERFLKELEEAAKEYAKDEAKTMSEEEAKRRAKNYKEKVLLSELSEEEQKEIKEAEEKLVRTILKYVEEAAK | 2480

The remaining lines, values ahead:

Row | apparent Kd (screen) [pM] | Binder
23 | 4830 | E78K (designed binder) SMEEEVEKAAKEYEKKKKEAIEKHLEKLKAKDKEAAERFLKELEEAAKEYAKDEAKTMSEEEAKRRAKKYKEKVLLSKLSEEEQKEIKEAEEKLVRTILKYVEEAAK
24 | 1690 | E83G (designed binder) SMEEEVEKAAKEYEKKKKEAIEKHLEKLKAKDKEAAERFLKELEEAAKEYAKDEAKTMSEEEAKRRAKKYKEKVLLSELSEEGQKEIKEAEEKLVRTILKYVEEAAK
25 | 2730 | T97V (designed binder) SMEEEVEKAAKEYEKKKKEAIEKHLEKLKAKDKEAAERFLKELEEAAKEYAKDEAKTMSEEEAKRRAKKYKEKVLLSELSEEEQKEIKEAEEKLVRVILKYVEEAAK
26 | 790 | L75I (designed binder) SMEEEVEKAAKEYEKKKKEAIEKHLEKLKAKDKEAAERFLKELEEAAKEYAKDEAKTMSEEEAKRRAKKYKEKVILSELSEEEQKEIKEAEEKLVRTILKYVEEAAK
27 | 593 | A106K (designed binder) SMEEEVEKAAKEYEKKKKEAIEKHLEKLKAKDKEAAERFLKELEEAAKEYAKDEAKTMSEEEAKRRAKKYKEKVLLSELSEEEQKEIKEAEEKLVRTILKYVEEAKK
28 | 539 | E82V (designed binder) SMEEEVEKAAKEYEKKKKEAIEKHLEKLKAKDKEAAERFLKELEEAAKEYAKDEAKTMSEEEAKRRAKKYKEKVLLSELSEVEQKEIKEAEEKLVRTILKYVEEAAK
29 | 956 | K107P (designed binder) SMEEEVEKAAKEYEKKKKEAIEKHLEKLKAKDKEAAERFLKELEEAAKEYAKDEAKTMSEEEAKRRAKKYKEKVLLSELSEEEQKEIKEAEEKLVRTILKYVEEAAP
30 | 2730 | L76N (designed binder) SMEEEVEKAAKEYEKKKKEAIEKHLEKLKAKDKEAAERFLKELEEAAKEYAKDEAKTMSEEEAKRRAKKYKEKVLNSELSEEEQKEIKEAEEKLVRTILKYVEEAAK
31 | 593 | E81H (designed binder) SMEEEVEKAAKEYEKKKKEAIEKHLEKLKAKDKEAAERFLKELEEAAKEYAKDEAKTMSEEEAKRRAKKYKEKVLLSELSHEEQKEIKEAEEKLVRTILKYVEEAAK
32 | 790 | A106G (designed binder) SMEEEVEKAAKEYEKKKKEAIEKHLEKLKAKDKEAAERFLKELEEAAKEYAKDEAKTMSEEEAKRRAKKYKEKVLLSELSEEEQKEIKEAEEKLVRTILKYVEEAGK
33 | 446 | K85N (designed binder) SMEEEVEKAAKEYEKKKKEAIEKHLEKLKAKDKEAAERFLKELEEAAKEYAKDEAKTMSEEEAKRRAKKYKEKVLLSELSEEEQNEIKEAEEKLVRTILKYVEEAAK
34 | 490 | K93Q (designed binder) SMEEEVEKAAKEYEKKKKEAIEKHLEKLKAKDKEAAERFLKELEEAAKEYAKDEAKTMSEEEAKRRAKKYKEKVLLSELSEEEQKEIKEAEEQLVRTILKYVEEAAK
35 | 12500 | I87S (designed binder) SMEEEVEKAAKEYEKKKKEAIEKHLEKLKAKDKEAAERFLKELEEAAKEYAKDEAKTMSEEEAKRRAKKYKEKVLLSELSEEEQKESKEAEEKLVRTILKYVEEAAK
